Data reported in paper PMC12901311, “HEXIM1 inter-monomer autoinhibition governs 7SK RNA binding specificity and P-TEFb inactivation” (Nature Communications, 2024).

Key:
Hexim1 NBLA-S158EE = Hexim1 NBLA-S158EE (human, UniProt O94992 1-157+=EE+159-253, internal_change); assay: ITC; N=0.74; ITC: 20 mM HEPES pH 7.5, 150 mM KCl, 1 mM TCEP, 295 K; NMR: 50 mM Na phosphate pH 6.2, 150 mM KCl, 0.02% NaN3, 5% D2O, 298 K; EMSA: binding buffer (20 mM HEPES); conditions: protein: recombinant; hairpin with U40U41 and U63 bulges
Chain of Hexim1 NBLA-S158EE (O94992 other isoform, or with tags, fused parts or gaps): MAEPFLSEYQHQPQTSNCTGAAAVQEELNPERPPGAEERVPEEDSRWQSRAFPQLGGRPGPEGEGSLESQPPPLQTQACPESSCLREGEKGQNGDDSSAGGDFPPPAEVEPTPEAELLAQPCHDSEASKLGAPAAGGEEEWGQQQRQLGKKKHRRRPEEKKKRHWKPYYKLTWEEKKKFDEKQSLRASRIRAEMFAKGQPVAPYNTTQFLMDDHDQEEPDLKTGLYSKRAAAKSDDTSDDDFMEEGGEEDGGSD

[1] = biological target: Hexim1 BR-L-AR(S183C-MTSL) (human, UniProt O94992 142-253, S183C); assay: NMR (PRE); 1:1.2 protein:RNA; intensity recovery outside BR; ITC: 20 mM HEPES pH 7.5, 150 mM KCl, 1 mM TCEP, 295 K; NMR: 50 mM Na phosphate pH 6.2, 150 mM KCl, 0.02% NaN3, 5% D2O, 298 K; EMSA: binding buffer (20 mM HEPES); conditions: protein: recombinant; tags: MBP-His6 removed by TEV; non-native N-terminal G; MTSL spin label at C183; hairpin with U40U41 and U63 bulges
Chain of Hexim1 BR-L-AR(S183C-MTSL) (O94992 142-253 S183C): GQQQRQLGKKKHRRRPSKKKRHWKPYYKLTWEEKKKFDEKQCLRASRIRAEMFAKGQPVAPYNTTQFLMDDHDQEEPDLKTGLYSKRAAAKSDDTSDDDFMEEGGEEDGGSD

Hexim1-deltaPYNT = Hexim1-deltaPYNT (human, UniProt O94992 1-201+206-359, internal_change); assay: ITC; ITC: 20 mM HEPES pH 7.5, 150 mM KCl, 1 mM TCEP, 295 K; NMR: 50 mM Na phosphate pH 6.2, 150 mM KCl, 0.02% NaN3, 5% D2O, 298 K; EMSA: binding buffer (20 mM HEPES); conditions: protein: recombinant; chain copies: 2; hairpin
Chain of Hexim1-deltaPYNT (O94992 other isoform, or with tags, fused parts or gaps | mutant): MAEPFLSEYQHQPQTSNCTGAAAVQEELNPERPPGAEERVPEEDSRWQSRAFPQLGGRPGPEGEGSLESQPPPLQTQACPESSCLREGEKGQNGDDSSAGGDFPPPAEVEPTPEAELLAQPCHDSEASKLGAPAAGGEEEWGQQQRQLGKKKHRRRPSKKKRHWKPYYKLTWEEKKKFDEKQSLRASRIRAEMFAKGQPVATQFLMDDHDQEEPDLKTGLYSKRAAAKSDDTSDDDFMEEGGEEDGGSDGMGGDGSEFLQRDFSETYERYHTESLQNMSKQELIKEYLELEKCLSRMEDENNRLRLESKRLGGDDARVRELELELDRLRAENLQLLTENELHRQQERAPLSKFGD

Binder | Kd (Hexim1 NBLA-S158EE) | binding result [1] | binding signal (Hexim1-deltaPYNT)
GGCCAUUGAUCGCCUUCGGGCUGAUCUGGCC (structured_RNA) [7SK SL1-dI] | 727 ± 63 nM | binds | –
GGAUGUGAGGGCGAUCUGGCUUCGGCCUUCCUCCCUCACCGCUCCA (structured_RNA) [7SK SL1-p] | – | – | ~5 fold tighter than wild-type Hexim1
